Measurements as given in patent US20260308224A1, “METHODS AND COMPOSITIONS FOR DISPLAYING PEPTIDE LIBRARIES” (priority 2023, published 2026).

Key:
[1] = biological target: T1, MOR (Homo sapiens, UniProt P35372); assay: tethered peptide library sorting on GFP fluorescence with NGS; format: cell-based; conditions: metric: positive count
T1 construct: Gpa1/Gi3 chimeric G alpha; exogenous or tethered peptides
From the text: (§1) The first, henceforth referred to as library 1, site saturated the first four positions of the peptide, YGGF, using an NNK mutagenesis strategy (FIG. 5). This is canonically the “message” region, understood to be integral to opioid receptor signaling, with the tyrosine being particularly important. […] In creating this library, it was hoped that it could be determined how much variation is tolerated in this region, and how this might differ for opioid receptor sub-type.
(§2) The second library, library 2, saturated the latter four residues of the peptide, LRRI (FIG. 5). This “address” region is thought to confer receptor specificity, interacting with receptor residues further up the binding pocket (Metzger et al. 2001; Xue et al. 1994; Marie-Pepin et al. 1997), but can still be important for receptor activity. It was hypothesized that more variation would be tolerated in this region, including more sub-type specific variation.
(§3) Libraries were sorted twice on GFP fluorescence. Roughly 15 times the theoretical nucleotide complexity was sorted to ensure rare variants were assayed. […] After the second sorts, the genomes of the positive and negative populations were prepped and the library cassettes were sequenced in technical replicate using NGS at a depth of at least 1 million reads.
(§4) Several strategies were used to both identify unique binders for receptor sub-type and identify generally preferred residues and motifs. Log proportions between the positive and negative pools were determined with a filter of-11 (FIG. 6). […] Because the libraries were sorted twice, and the fraction of cells with a GFP signal small, strong signalers were expected to be present in relatively high numbers in the positive pool.
(§5) To incorporate both metrics, log proportions after a cut off of 500 nucleotide read counts were also determined (FIGS. 7 and 8).
(§6) Beyond identification of general motif trends, variants unique to individual receptors were determined. For a general idea of variant specificity, plots showing receptor specificity by the log proportion metric were generated (FIGS. 12 and 13). […] Logo plots of receptor-unique variants by this metric are highlighted in FIGS. 14 and 15. To account for the noise around potentially low count variants, log proportions between positive and negative pools were determined after filtering on a minimum variant read count of 500 in the positive and negative pools. Variants that were receptor unique by this metric are highlighted in the logo plots in FIGS. 16 and 17.
(§7) Peptide candidates for further analysis were determined by manually curating the three discussed methods (Table 1).
(§8) For cell sorting experiments, post-transformation outgrowths were grown overnight in SD-URA/His pH 5.8 media, and cultures were passaged the following day 1:25 to minimize dead and untransformed cells. The following day the saturated cultures were washed three times in SD-URA/His pH 7.1 100 mM MOPS media without a carbon source to minimize glucose carry-over. Cultures were then diluted 1:10 their initial volume in SD-URA/His pH. 7.1 100 mM MOPS 2% galactose 0.2% glucose media and grown for 24 hours. Cells were then resuspended in an equal volume of TE pH 8.0 and 14-15 million events were sorted using a SH800S Cell Sorter (Sony) on GFP fluorescence, gated for singlets. Cells were sorted into SD-His/URA pH 5.8 media with pen/strep and grown for two days post sorting. Cultures were again washed and induced with galactose and sorted via the same parameters into positive and negative pools and grown up for 2 days. Genome extractions were performed using a Zymo Yeast Star kit.

[2] = biological target: T2, DOR (Homo sapiens, UniProt P41143); assay: as above; format: cell-based; conditions: metric: positive count
T2 construct: Gpa1 with human Gi3 C-terminal five residues; tethered peptide display
From the text: as §1, §2, §3, §4, §5, §6, §7, §8

[3] = biological target: T3, KOR (Homo sapiens, UniProt P41145); assay: as above; format: cell-based; conditions: metric: positive count
T3 construct: Gpa1 with human Gi3 C-terminal five residues; tethered peptide display
From the text: as §1, §2, §3, §4, §5, §6, §7, §8

[4] = biological target: T2, DOR; assay: tethered peptide agonist display, GFP reporter signaling in yeast; format: cell-based; conditions: individually cloned tethered isolates (FIG. 27)
Description: (§9) Anchoring with Flo42 at both the N- and C-termini of the peptides was tried. Additionally, versions with and without a glycine-serine linker between the peptide and the Flo42 region were assayed (versions with linker, FIG. 19). To enable rapid screening, the tethered peptide cassette was expressed on a plasmid under the control of a constitutive promoter.
Expression was driven by a galactose-inducible promoter, pGal1, and the construct was integrated into the yeast genome. The inducible promoter was used to control the length of peptide expression and minimize potential for unwanted selection from long-term constitutive expression. Like the tethered peptide cassette, receptors were integrated into the genome to avoid downstream issues with variable plasmid copy number and sorting (Bean et al. 2022).
Plasmids were constructed using Golden Gate assembly of components from the Yeast Toolkit with some adaptations. Receptors were expressed on either 2μ URA3 backbones driven by the CCW12 promoter or integrated into the yeast genome using a URA3 auxotrophic marker and driven by the TDH3 promoter. Tethered peptide cassettes were expressed on either a Cen6 HIS3 backbone or integrated into the yeast genome using HIS3 auxotrophic markers and were driven by pHHF2 for plasmid-based expression, and pGal1 for integrated expression. Oligos were ordered as gblocks or single stranded DNA from IDT.

[5] = tested on: HsDOR; conditions: previously tested in yeast (Uddin et al. 2016); cited from earlier work
[6] = tested on: human opioid receptors; assay: tethered peptide orientations and controls, GFP reporter signaling in yeast; format: cell-based; conditions: pGal1, integrated; FIG. 20 (cholesterol-producing strain CJM263)
Description: as §9, with “Due to the limited application and efficacy of activating human GPCRs via this strategy, several tethering orientations for the dynorphin peptides were attempted. Anchoring” for “Anchoring”
This optimized tethering orientation was then assayed in the context to be used for library peptide display. Expression was driven by a galactose-inducible promoter, pGal1, and the construct was integrated into the yeast genome. The inducible promoter was used to control the length of peptide expression and minimize potential for unwanted selection from long-term constitutive expression. Like the tethered peptide cassette, receptors were integrated into the genome to avoid downstream issues with variable plasmid copy number and sorting (Bean et al. 2022). […] It was decided to screen MOR with the peptide libraries to determine if there were any variations that could rescue function, with the hypothesis that the sequence space assayed would likely contain variants capable of activating the receptor. […]

T1 sequence (P35372 whole entry): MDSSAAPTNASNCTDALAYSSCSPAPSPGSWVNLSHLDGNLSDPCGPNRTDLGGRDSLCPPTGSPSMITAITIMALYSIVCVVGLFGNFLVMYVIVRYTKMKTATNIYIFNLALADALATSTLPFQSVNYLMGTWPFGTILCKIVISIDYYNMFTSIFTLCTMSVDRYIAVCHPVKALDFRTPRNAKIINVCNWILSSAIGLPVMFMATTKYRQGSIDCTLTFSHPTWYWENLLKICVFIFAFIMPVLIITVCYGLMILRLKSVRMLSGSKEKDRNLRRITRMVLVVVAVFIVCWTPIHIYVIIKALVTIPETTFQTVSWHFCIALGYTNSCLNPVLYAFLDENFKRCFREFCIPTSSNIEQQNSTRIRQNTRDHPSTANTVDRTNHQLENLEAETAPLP
T3 sequence (P41145 whole entry): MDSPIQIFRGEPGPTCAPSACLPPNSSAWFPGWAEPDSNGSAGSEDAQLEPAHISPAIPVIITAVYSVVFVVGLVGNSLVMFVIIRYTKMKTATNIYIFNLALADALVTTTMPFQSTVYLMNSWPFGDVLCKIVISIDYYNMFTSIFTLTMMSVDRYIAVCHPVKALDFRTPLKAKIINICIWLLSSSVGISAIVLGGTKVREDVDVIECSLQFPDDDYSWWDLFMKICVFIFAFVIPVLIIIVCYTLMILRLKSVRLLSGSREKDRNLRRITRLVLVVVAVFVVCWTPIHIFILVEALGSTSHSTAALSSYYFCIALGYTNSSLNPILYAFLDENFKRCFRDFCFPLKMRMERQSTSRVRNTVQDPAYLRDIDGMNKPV
T2 sequence (P41143 whole entry): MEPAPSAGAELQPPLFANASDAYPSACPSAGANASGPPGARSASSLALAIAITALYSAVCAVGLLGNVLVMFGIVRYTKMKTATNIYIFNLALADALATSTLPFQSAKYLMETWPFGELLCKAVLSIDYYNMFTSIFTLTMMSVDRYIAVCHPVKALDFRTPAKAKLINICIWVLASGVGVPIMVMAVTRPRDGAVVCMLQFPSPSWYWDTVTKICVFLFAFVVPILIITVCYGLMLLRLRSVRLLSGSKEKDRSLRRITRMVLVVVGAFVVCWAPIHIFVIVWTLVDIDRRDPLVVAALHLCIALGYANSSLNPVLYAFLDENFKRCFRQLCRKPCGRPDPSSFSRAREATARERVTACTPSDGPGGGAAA

With YGGFMGSV the “top-performing motif unique for receptor” value ([1]; library 2) was “MOR”.
For YGGFSSGL, the “top-performing motif unique for receptor” value ([2]; library 2) was “DOR”.
In the case of YGGFMVAT, the “top-performing motif unique for receptor” value ([1]; library 2) is reported as “MOR”.
In the case of YGGFGSGR, the “top-performing motif unique for receptor” value ([2]; library 2) is reported as “DOR”.
In the case of YGGFSSSG, the “top-performing motif unique for receptor” value ([2]; library 2) is reported as “DOR”.
For WWPDLRRI, the “top-performing motif unique for receptor” value ([2]; library 1) was “DOR”.
For GLVNLRRI, the “top-performing motif unique for receptor” value ([1]; library 1) was “MOR”.
For SHYVLRRI, the “top-performing motif unique for receptor” value ([3]; library 1) was “KOR”.
In the case of SVPFLRRI, the “top-performing motif unique for receptor” value ([3]; library 1) is reported as “KOR”.
For YGGFYSRW, the “top-performing motif unique for receptor” value ([3]; library 2) was “KOR”.
For YGGFYRLR, the “top-performing motif unique for receptor” value ([3]; library 2) was “KOR”.
For YGMELRRI, the “top-performing motif unique for receptor” value ([2]; library 1) was “DOR”, the “receptor specificity of individually cloned isolates” value [4] was “delta-specific” and the “signaling of individually cloned isolates” value [4] was “signaled strongly”.
For dynorphin A 1-17, the activity [5] is given as “showed activity”.
For LVLLLRRI, the “top-performing motif unique for receptor” value ([1]; library 1) was “MOR”.
In the case of YGGFRCCA, the “top-performing motif unique for receptor” value ([1]; library 2) is reported as “MOR”.
For YGFDLRRI, the “top-performing motif unique for receptor” value ([2]; library 1) was “DOR”.
With YGGFMNYP the “top-performing motif unique for receptor” value ([1]; library 2) was “MOR”.
With YGGFSSRG the “top-performing motif unique for receptor” value ([2]; library 2) was “DOR”.
For SAWPLRRI, the “top-performing motif unique for receptor” value ([3]; library 1) was “KOR”.
With YGGFYSYA the “top-performing motif unique for receptor” value ([3]; library 2) was “KOR”.
For YGGFGGSG, the “top-performing motif unique for receptor” value ([2]; library 2) was “DOR”.
For YGFDLLRI, the “receptor specificity of individually cloned isolates” value [4] was “delta-specific” and the “signaling of individually cloned isolates” value [4] was “signaled strongly”.
For YQRFLRRI, the “top-performing motif unique for receptor” value ([3]; library 1) was “KOR”.
For CDIQLRRI, the “top-performing motif unique for receptor” value ([3]; library 1) was “KOR”.
With “GGGSGGGGSGGGSGGGGS [glycine-serine linker, glycine-serine linker, without peptide agonist, negative control]” the “activity of negative controls” value [6] was “no activity”.
